B1: hFc-sdAb008-DM1 (Fc fusion, not shown: a dimerising Fc or GST)
chain: QVKLEESGGGLVQAGGSLRLSCAASGSSGMINTMGWYRQAPGKQRELVARRSTGGTTNYADSVKGRFTISRDDANNTVYLQMNSLKPEDTAVYYCAIIWRTSDLTGRFNTWGQGTQVTVSS
modifications: DM1 conjugate (SMCC linker); sites not given
B2: hFc-sdAb001-DM1 (Fc fusion, not shown: a dimerising Fc or GST)
chain: QVKLEESGGGLVQAGGSLRLSCTASASISSFDIMGWYRQAPGKQRELVAAITTLDIANYRDSVKGRFTISRDNAKNTVYLQMDSLKPEDTARYHCAAFQSDQNYWGQGTQVTVSS
modifications: DM1 conjugate (SMCC linker); sites not given
B3: hFc-sdAb005-DM1 (Fc fusion, not shown: a dimerising Fc or GST)
chain: QVKLEESGGGLAQAGGSLRLSCAASGSISSINTIGWFRQAPGKQRELVAASDSGANRNYADSVKGRFTISRDNAKNTVYLQMNNLKPEDTAIYYCRAWGTGTISTMYWGQGTQVTVSS
modifications: DM1 conjugate (SMCC linker); sites not given
B4: hFc-sdAb006-DM1 (Fc fusion, not shown: a dimerising Fc or GST)
chain: QVKLEESGGGLVQAGASLRLSCVASESIFGFNTMGWYRQAPGNERELVASISNSKRTMYADSVKGRFTISRDNAKNTVNLQMNNLKPEDTAVYYCRAWGIITSATVYWGQGTQVTVSS
modifications: DM1 conjugate (SMCC linker); sites not given
B5: NRC-sdAb003-Fc (VHH-human IgG1 Fc fusion) (Fc fusion, not shown: a dimerising Fc or GST)
chain: QVQLVESGGGLVQAGGSLRLSCAASGVTLDYTAIGWFRQAPGKERELVAAITSGGNTDYAESAKGRFRISRDNSKNTIYLQMNSLKPEDTGVYYCAARRGGARGEYDYWDQGTQVTVSS
B6: NRC-sdAb002-Fc (VHH-human IgG1 Fc fusion) (Fc fusion, not shown: a dimerising Fc or GST)
chain: QVQLVDSGGGLVQAGGSLRLSCATSTRTVSSAVMAWFRQAPEKVRDFVGFITNSGNILYDDSVKGRFTISRDNAQNTVYLQMNSLKPEDTAVYYCAAKWSFSSGYGDLRRAAMYDYWGQGTQVTVSS
B7: NRC-sdAb001-Fc (VHH-human IgG1 Fc fusion) (Fc fusion, not shown: a dimerising Fc or GST)
chain: B2 chain
B8: hFC-F107-10G1 (antibody, human IgG1, kappa, V domains shown)
VH: EVNLVESGGGVVKPGASLKLSCEASGFTFSNYGMSWVRQTSDKRLEWVASISGGGGRTYYLDNVKGRFIISRENAKNTLYLQMSSLKSEDTALFYCARGARASYFAMDYWGQGSSVTVSS
VL: VIVMTQSHKFMSTSVGDRVSITCKASQDVTTAVAWYQQKPGQSPKLLIYWASTRHTGVPDRFTGSGSGTDYSLTISNVQTEDLAFYYCQQHFTTPLTFGAGTKLELKR

Target: human AXL expressed on the cell surface of tumor cell lines (human) (UniProt P30530)
Assay: cell-based or functional assay

Chain of human AXL expressed on the cell surface of tumor cell lines (human) (P30530 26-894): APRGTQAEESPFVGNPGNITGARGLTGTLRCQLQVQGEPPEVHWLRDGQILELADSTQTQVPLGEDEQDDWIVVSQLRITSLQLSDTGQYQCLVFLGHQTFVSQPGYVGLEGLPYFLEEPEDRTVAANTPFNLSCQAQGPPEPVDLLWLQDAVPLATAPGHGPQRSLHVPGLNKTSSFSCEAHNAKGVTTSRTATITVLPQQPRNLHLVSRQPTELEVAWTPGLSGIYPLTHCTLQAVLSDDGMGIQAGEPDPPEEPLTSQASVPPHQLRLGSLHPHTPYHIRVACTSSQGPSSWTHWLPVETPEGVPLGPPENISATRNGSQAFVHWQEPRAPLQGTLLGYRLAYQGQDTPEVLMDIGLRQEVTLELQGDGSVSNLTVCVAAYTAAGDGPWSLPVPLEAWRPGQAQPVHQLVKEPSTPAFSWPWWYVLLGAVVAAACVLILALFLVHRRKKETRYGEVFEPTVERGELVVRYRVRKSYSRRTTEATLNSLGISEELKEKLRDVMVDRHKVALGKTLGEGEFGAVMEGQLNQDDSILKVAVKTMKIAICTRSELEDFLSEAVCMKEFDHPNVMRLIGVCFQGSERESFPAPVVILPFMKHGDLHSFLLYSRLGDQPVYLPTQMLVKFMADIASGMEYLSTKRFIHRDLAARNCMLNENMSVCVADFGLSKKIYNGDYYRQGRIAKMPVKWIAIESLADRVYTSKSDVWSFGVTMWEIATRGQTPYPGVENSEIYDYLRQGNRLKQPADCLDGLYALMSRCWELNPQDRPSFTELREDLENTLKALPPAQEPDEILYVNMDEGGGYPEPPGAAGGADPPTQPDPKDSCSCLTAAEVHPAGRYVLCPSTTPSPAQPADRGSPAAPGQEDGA

In order of falling IC50 of growth inhibition (CellTiterGlo, 5 days) of NCI-H292 cells, -Gas6:
1. B3  6.66 nM
2. B4  2.71 nM
3. B2  0.887 nM
4. B1  0.034 nM

In order of falling IC50 of growth inhibition of NCI-H292 cells, +Gas6 (2 µg/mL):
1. B3  3.78 nM
2. B1  0.24 nM

Target: huAXL-ECD displayed on yeast (human) (UniProt P30530)
Assay: yeast surface display ELISA, non-denatured yeast, goat anti-human F(ab')2-HRP

Chain of huAXL-ECD displayed on yeast (human) (P30530 26-449, form in doubt): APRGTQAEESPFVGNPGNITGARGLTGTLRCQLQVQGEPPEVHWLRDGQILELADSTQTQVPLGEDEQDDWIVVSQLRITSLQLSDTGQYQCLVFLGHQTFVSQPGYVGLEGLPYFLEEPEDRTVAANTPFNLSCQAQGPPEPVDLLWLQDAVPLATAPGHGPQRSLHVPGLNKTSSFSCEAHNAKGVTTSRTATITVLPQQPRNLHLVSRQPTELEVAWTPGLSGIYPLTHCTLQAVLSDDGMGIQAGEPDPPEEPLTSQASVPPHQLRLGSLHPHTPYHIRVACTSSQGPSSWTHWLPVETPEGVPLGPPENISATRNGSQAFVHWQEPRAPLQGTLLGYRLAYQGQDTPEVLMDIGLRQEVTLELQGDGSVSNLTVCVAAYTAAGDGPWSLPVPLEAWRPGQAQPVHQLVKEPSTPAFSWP

In order of rising yeast ELISA signal normalized to myc expression level:
1. B5  0.659
2. B6  0.882
3. B7  1.03
4. B8  1.39
